{
  "source": "the nanobody polyreactivity screen of Harvey et al. (2022)",
  "data": [
    {"assay": "yeast display, Sf9 membrane polyspecificity reagent, FACS + sequencing; frameworks hold sequencing errors", "outline": "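Nanobodies from a synthetic yeast display library (Saccharomyces cerevisiae BJ5465), induced 36–48 hours with galactose, were stained 1 hour at 4 °C with 10% biotinylated, detergent-solubilized Sf9 membrane reagent, enriched on streptavidin microbeads, then FACS-sorted. Anti-HA (expression) and streptavidin (reagent binding) fluorescence set low and high (top ~1%) gates. Polyreactivity labels come from the gate of origin. Genes were colony-PCR amplified, MiSeq 2 × 250 sequenced and filtered by CDR length.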", "values": [
      {"sequence": "QVQLVESGGGLVQAGGSLRLSCAASGSTFSRYVMGWYRQAPGKERELVAAISSTGGSTYYADSVKGRFTISRDNAKNTVYLQMNSLKPEDTAVYYCNTTYSYGVAAARYYYWGQGTQVTVSS", "polyreactivity (PSR sort gate)": "high polyreactivity"},
      {"sequence": "QVQLVESGGGLFQAGGSLSLSCAASGFIFSGYAMGWYRQAPGTERELVAAITWSCSNTFYADSVKGRFTISRDNAKITVFLQMNSLKPEDTAVYYCTAVSKYKRSDYYYWGQGTQVTVSS", "polyreactivity (PSR sort gate)": "high polyreactivity"},
      {"sequence": "QVQLVESGGGLVQAGGSLRLSCAASGLIFKRYGMGWYRQAPGKERELVAAISRSGGNTYYADSVKGRFTISRDNAKNTVYLQMNSLKPEDTAVYYCAATATYTYSDVDYWGQGTQVTVSS", "polyreactivity (PSR sort gate)": "high polyreactivity"},
      {"sequence": "QVQLVESGGGLVQAGGSLRLSCAASGSIFWQNTMGWYRQAPGKERELVAAISWSGGRTYYADSVKGRFTISRDNAKNTVYLQMNSLKPEDTAVYYCAAAFSPGWWSRHTYDYDYWGQGTQVTVSS", "polyreactivity (PSR sort gate)": "high polyreactivity"},
      {"sequence": "QVQLVESGGGLVQAGGSLRLSCAASGFTFRYNAMGWYRQAPGKERELVAAITNSGGGTYYADSVKGRFTISRDNAKNTVYLQMNSLKPEDTAVYYCNAKRTNRYVWGKYDYWGQGTQVTVSS", "polyreactivity (PSR sort gate)": "high polyreactivity"},
      {"sequence": "QVQLVESGGGLVQAGGSLRLSCAASGFTFSVYVIGWYRQAPGKERELVAAISSGGDTTYADSVKGRFTISRDNAKNTVYLQMNSLKPEDTAVYYCADYRVILYYLYDYWGQGTQVTVSS", "polyreactivity (PSR sort gate)": "low polyreactivity"},
      {"sequence": "QVQLVESGGGLLQAGGSLRLSCAASGFIFIQYAMGWYRQAPGKEREFVAAITGRGSSTYYADSVKGRFTISRDNAKNTVYLQMNSLKPEDTAVFYCAADRDSYIFYYYWSYDYWGQGTQVTVSA", "polyreactivity (PSR sort gate)": "high polyreactivity"},
      {"sequence": "QVQLVESGGGLVQAGGILRLSCAASGYIFVRNAMGWYRQAPGKERELVAAISGSGGSTYYADSVKGRFTISRDNAKNTVYLQMNRLKPEDTEVYYCAADYATVTWRGIAYDYWGQGTQVTVSS", "polyreactivity (PSR sort gate)": "low polyreactivity"},
      {"sequence": "QVQLVESGGGLVQAGGSLRLSCAASGRTFGIYAMGWYRQAPGKERELVAAITWSGDSTYYADSVKGRFTISRDNAKNTVYLQMNSLKPEDTAVYYCAADYVGVTSVRYDYWGQGTQVTVSS", "polyreactivity (PSR sort gate)": "low polyreactivity"},
      {"sequence": "QVQLVESGGGLVQAAGSLRLSCAASGRTFYVYDMGWYRQAPGKERELVAVISSSGSTNYADSVKGRFTISGDNAKNSVYLQMNSLKPEDTAVYDCYRRRWYFFSLDYWGQGTQVTVSS", "polyreactivity (PSR sort gate)": "high polyreactivity"},
      {"sequence": "QVQLVESGGGLVHAGGSLRLSCAASGSTFVRNAMGWYRPAPGKERQLVAAITSRGGSTYYADSVKGRFTISRDNAKNTVYLQMISLKPEDTAVYYCAARFGVKRGQYDYWGQGTQVTVSS", "polyreactivity (PSR sort gate)": "high polyreactivity"},
      {"sequence": "QVQLVESGGGLVQAGGILRLSCAASGRTFVRNTMGWYRQAPGKERELVAVISRSGGSTYYADSVKGRFTISRDNAKNTVYLQMNRLKPEDTAVYYCNADTYSAGDYWGQGSQVTVSS", "polyreactivity (PSR sort gate)": "high polyreactivity"},
      {"sequence": "QVQLVESGGGLVQAGGSLRLSCAASAFILASYPMGWNRQAPGKERELVAAITKRGGSTYYADSVKGRFTISRDNAKNTVFLQMNSLKPEDTAVYFCATYSSTVLPRWKYYYWGQGTQVPVSS", "polyreactivity (PSR sort gate)": "high polyreactivity"},
      {"sequence": "QVQLVESGGGLVQAGGSLRLSCAASGFTFYIYAMGWYRQAPGKERELVAGIDYSGGSTYYADSVKGRFTISRDNAKNTVYLQMNSLKPEDTAVYYCARYGPYQSSYHYDYWGQGTQVTVSS", "polyreactivity (PSR sort gate)": "high polyreactivity"},
      {"sequence": "QVQLQESGGGLVQAGGSLRLSCAASGTISDSGLMGWYRQAPGKERELVAGISSGGITNYADSVKGRFTISRDNAKNTVYLQMKSLKPEDTAVYWGQGTQVTVSS", "polyreactivity (PSR sort gate)": "low polyreactivity"},
      {"sequence": "QVQLVESGGGLVQAGGSLRLSCAASGRIFPYYAMGWYRQAPGKERELVATISTAGSTNYADSVKGRFTISRDNAKNTVYLQMNSLKPEDTAVYYCATRNTWYHRGYDYWGQGTQVTVSS", "polyreactivity (PSR sort gate)": "low polyreactivity"},
      {"sequence": "QVQLVDSGGGLVQAGGSLRLSCAASGLTFTRYAMGWYRQAPGKERELVAAISKNGGSTYYADSVKGRFTISRDNAKNTVYLQMNSLKPAETAVYYCAARRYGPGRYPEDYWGQGTQVTVSS", "polyreactivity (PSR sort gate)": "high polyreactivity"},
      {"sequence": "QVQLVESVGGLVQAGGSLRLSCAASGSIFFNYTMGWYRQAPGKERELVAAINSSGGRTNYADSVKGRFTISRDNAKNTVYLQMNSLKPEDTAVYYCAAVYYDVWYVYWGQGTQVTVSS", "polyreactivity (PSR sort gate)": "low polyreactivity"},
      {"sequence": "QVQLVESGGGLVQAGGSLRLSCAASGRTFHYNAMGWYRQAPGKERELVAAITRSGGSTYYADSVKGRFTISRDNAKNTVYLQMNSLKPEDTAVYYCNAAYLHPGPFDYWGQGTQVTVSS", "polyreactivity (PSR sort gate)": "low polyreactivity"},
      {"sequence": "QVQLVESGGGLVQAGGSLRLSCAASGRIFQGYVMGWYRQAPGKERELVAAITTGGSTYYADSVKGRFTISRDNAKNTVYLQMNSLKPEDTAVYYCNAVVYVSGYNPYIFGYWGQGTQVTVSS", "polyreactivity (PSR sort gate)": "low polyreactivity"},
      {"sequence": "QFQLVESGGGLVQAGGSLRLSCAASGIISSVYAMGWYRQAPGKERELVAAISGSGGSTYYADSVKGRFTISRDNAKNTVYLQMNSLKPEDTAVYYCAKGYQYQGNSYGYWGQGTQVTVSS", "polyreactivity (PSR sort gate)": "low polyreactivity"},
      {"sequence": "QVQHVESGGGLVQARGSLRLSCAASGSIFDLNAMGRYRQAPGKERELVAAISSGGGTYYADSVKGRFTISRDNSKNTVYLQMNSLKPVDTAVYYCKRVTRWTYNYWGQGTQVTVSS", "polyreactivity (PSR sort gate)": "high polyreactivity"},
      {"sequence": "QVQLVESGRGLVQAGGSLRLSCAASGLIFGRNAMGWYIQAPGKERECVAANTSGGSTYYADSVKGRFTISRDNAKNSVYLQMNSLKPEDTAVYYCAADVVDLYLLDYWGQGTQVTVSS", "polyreactivity (PSR sort gate)": "low polyreactivity"},
      {"sequence": "QVQLVESGGGLVQAGGSLRLSCAASGRTFQFYAMGWYRQAPGKEREWVAAISRSSGSTTYADSVKGRFTISRDNAKNTVYLQMNSLKPEDTAVFYCDADARYRSYSLLVRPARYYYWGQGTQVTVAS", "polyreactivity (PSR sort gate)": "high polyreactivity"},
      {"sequence": "QVQLVESGGGLVQAGGSLRLSCAASGIIFNSNAMGWYRQAPGKERELVAAISVSGGSTYYADSVKGRFTISRDNAKNTVYLQMYSLIPEDTAVYYCNARSLYPWRWKKEYGHWGQGTQVTVSS", "polyreactivity (PSR sort gate)": "high polyreactivity"},
      {"sequence": "QVQLVESGGGLVQAGGSLRLSCAASGSTFVNYAMGWYRQAPGKERELVAAITRSGGNTYYADSVKGRFTISRDNAKNTVYLQMNSLKPEDTAVYDCAASFKQDIWYYYWGQGTQVTVSS", "polyreactivity (PSR sort gate)": "high polyreactivity"},
      {"sequence": "QVQLVESGGGLVQAGGSLRLSCADSGRTFYPYVMGWYRQAPGKERELVADISWSGGRTYYADSVKGRFTISRDNAKNTVYLQMYSLKPEDTAVYYCCAGYRRRYNYWGQGTQVTVSS", "polyreactivity (PSR sort gate)": "high polyreactivity"},
      {"sequence": "QVQLVESGGGLVQAGGSLRLSCAASGIIFQQYAMGWYRQAPGKERELVAAITYSGDGTYYADSVKGRFTISRDNANNTVYLQMNSLKPEDTAVYYCAAYPRDPYKEYDYWGQGTQVTVSS", "polyreactivity (PSR sort gate)": "low polyreactivity"},
      {"sequence": "QVQLVESGGGLVQAGGSLRLSCAASGSIFYENDMGWYRQAPGKERELVAAISSGGTTNYADSVKGRFTISRDNAKNTVYLQMNSLKPEDTAVYYCAAEYPSVYYERFDYWGQGTQVTVSS", "polyreactivity (PSR sort gate)": "low polyreactivity"},
      {"sequence": "QVQLVESGGGLVQAGGSLRLSCAASGRIFRVYAMGWYRQAPGKERELVAAISSSGGSTYYADSVKGRFTISRDNAKNTVYLQMNSLKPEDTAVYYCAAGGLHTIQRPGYYYWGLGTQVTVSS", "polyreactivity (PSR sort gate)": "low polyreactivity"},
      {"sequence": "QVQLVESGGGLVQAGGSLRLSCAASGLTFRKNAMGWYRQAPGKERELVAAISTGGRTYYADSVKGRFTISRDNAKNTVYLQMNSLKPEDTAVYYFNSVSVKSGLDYWGQGTQVTVSS", "polyreactivity (PSR sort gate)": "high polyreactivity"},
      {"sequence": "QDQLVESGGGLVQAGGSLRLSCAASGLIFIDYAMGWYRQAPGKERELVAAITRGGARTYYADSVKGRFTISRDNAKNTVYLQMNSLNPEDTAVYYCAADRPGSRYIDVDYWGQGTQVTVSS", "polyreactivity (PSR sort gate)": "high polyreactivity"},
      {"sequence": "QVQLVESGGGLVQAGGSLRLSCAASARTFYYYAMGWYRQAPGKERELVAAISWSGGRTYYADSVKGRFTISRDNAKNTVYLQMNSLKPEDTAVYYFAVPYPAEGYGGDYWGQGTQVTVSS", "polyreactivity (PSR sort gate)": "low polyreactivity"},
      {"sequence": "QVQLVESGGGLVQAGGCLRKSCAASGFTFFSYARGWSRQAPGKERELVAGINSSGGSTNYADSVKGRFTISRDNAKNTVYLLMNSLKPEDTAVYYCNADLRSEYDYWGQGTQVTVSS", "polyreactivity (PSR sort gate)": "low polyreactivity"},
      {"sequence": "QVQLQESGGGLVQAGGSLRLSCAASGSISLGDNMGWYRQAPGKEREFVATISVGGITYYVDSVKGRFTISRDIAKNTVYLQMNSLKPEDTAVYYCAALDIYYFRYYYWGQGTQVTVSS", "polyreactivity (PSR sort gate)": "low polyreactivity"},
      {"sequence": "QVQLEESGGGLVQAGGSLSLSCAASGFIFPTYAMGWYRQAPGKERELVAVISGGGRTKYADSVKGRFTISRDNAKNTVYLQMNSLKPEDTAVYYCNADYWKGWTKFEYWGQGTQVTLSS", "polyreactivity (PSR sort gate)": "high polyreactivity"},
      {"sequence": "QDQHVESGGGLVQAGGSLRLSCAASGIILSAYAMGWYRQAPGTERELVARISRSGGRTYYADSVKGRFTISRDNAKNTVYLQMNSLKPEDTAVYYCAADYSYGFGLYFGYGYWGQGTQVTVSS", "polyreactivity (PSR sort gate)": "high polyreactivity"},
      {"sequence": "QVQLVESGGGLVQAGGSLRLSCAASGRIFGWYAMGWYRQAPGKERELVAAITWSGTSTYYAYSVKGRFTISRDNAKNTVYLQMNSLKPEDTAVYYCAAEPGWTMDYWGQGTQVTVSS", "polyreactivity (PSR sort gate)": "low polyreactivity"},
      {"sequence": "QVQLVESGGGLVQAGGSLRLSCAASGSTFAWYAMGWYRQAPGKERELVAAISRTGRTYYADSVKGRFTISRDNAKNSVYLQMNSLKPEDTAVYYCAAKSIYDGFPYYLFDYWGQGTQVTVSS", "polyreactivity (PSR sort gate)": "high polyreactivity"},
      {"sequence": "QVQLVESGGGLVQAGGSLRLSCAASGSIFTRYAMGWYRQEPGKERELVAAITTRGSSTYYADSVKGRFTISRDYAKNTVYLQMNSLKPEDTAVYYCATVVRLYRGRYRYDYWGQGTQVTVSS", "polyreactivity (PSR sort gate)": "high polyreactivity"},
      {"sequence": "QVQLVDSGGGLVQAGGSLRLSCAASGITIVYYAMGWNRQAPGKERELVAAITRGANTYYADSVKGRFTISRDNAKNTVYLQMNSLKPEDTAVYYCAADGWVGAWWYVLDVRYDYWGQGTQVTVSS", "polyreactivity (PSR sort gate)": "low polyreactivity"}
    ]}
  ]
}
